According to a protein production outcome set (Wang et al. 2014):

Experiment: label from the status in PepcDB records

Sequence | protein production
MDGRMDATTRMTLSVGALMFRMIWFPAPHWTHAARMTASTFRRYGFGLLSLVLLVLPSRLAAQDYEVPTVTDTYALQNARVVQAPGQVLESATVVVRDGVIDAVGPDAEVPYDARTIEADSLVVYAGFIDGLSHAGVEMPEGEDTDVEDPGNPPPDAAGIQPDRSVRPFLSPDESALQSLRKAGFTLGHVAPEGQMLPGASAHVFYGGETANDMVLEAGPTLFAQLQTADGYVYPATGMAVIAQMRQLYREAERRQQLEAAYERDPTGRPQPPQDPQHSALFSVLDGEQPLAFYADEALSLHRILALHQELDFPLVLAGLGESHELVDALQAVDAPLFLTLDLPEEPTRSTGQDTTTADTTSTPSRYYNPDLQVPSHETVAEEEENLELRHAMERQDYLETAATLHDAGLEFGFTTREADPGDVRGNLRTMIDQGLPEQTALAALTTRPAAQLGLDDRLGTVEAGKIANLVVTDGSYFAEDTKVTHVFVDGRLYDYSADGSDEGEVSGDVSAVLGTWSYTLDTPQGELSGEVTIEGDQSGLDGTFVGPQGDEQPLQSVSFDGTTLSFTVDSPQGGSVSVSVTVEGDTFDGSASTSGGSFPISGERTSGPNATQK | failed
MTLKTFFNFTRIQTLPAALLSPIAGCLFAFWYFGSFHFWPTLLFFIGLASINLFVSAWNNLMDYQKALDPEYKKWNIIVAKSINPKLALNICLALLAIDVVVGLIVLFLTNLAILPIGGLCFLIAIFYTYGPFAFSRFPLGEILAGLCEGFFGFFLAVYINSYDKGYFFINFDRNWFMTWTWDFKILLPILLVGLMCFVQNFNIMFSDNICDLEQDIRNERYTLPYYLKIPLSLKVFTGLYLFAGLCILIAIALGILPIWSLLMSIIALKVIPNIKKFRAKQSKSETFHLQIDNLMLFNASLALTLLLGIIFK | failed
KKFEQVIYRGITEGKSSNEIREELVHQAGMSSDKAAFIARDQTGTILGQMNSERQKRAGFQAFRWSDSGDERVRDSHRERNGKIYFYADNPLLPGEEYNCRCVAE | failed
MLGLFLIFWGLLLLLSLATFDLRDPSLNHVVSNPTEIRNGAGMFGSYLGGMLADAFGIAAFLWPVGFIGLGARYIIVSFDIAWWRWAGLLALSLCMVTAGAAWELSLGDVNAGGVLGDLLYRFSWKALSPRGSTLVWLFLCIIGLQLTFDISWTALFRRIVDKVRADLEAHPVSRPQLPELKLPRLGLPSGLHLPGRKGAEGNAPATLAVVDVTPDGSDSTNGAPSVVAREASTPRGMPVETDDFVLSEDRLQPPASELPFEVVLDADTDGVADLTADVESDISEGAGRPKAKMRRKSQLPPLDLLHSALNEDSRPDREVLEGKGLSLTNCLSDFGVQGELTRITPGPVVTMFEFRPAPGVKVSRIANLSDDLALALKAIAVRIQAPIPGTDTVGIEIPNETRETVCFKELLSSDTFKGASSLLTLAIGKDIAGRPTVADLSKMPHLLVAGATGAGKSVCLNSILLSILYKARPEDVKLLLVDPKRIELAVYADLPHLVHPVVTEMAHAKNALDWAVHEMDKRYEGMARLGVRNIAGYNQKLEDMGKERPADLADLEAMPYLVIIIDELADLMLTAAKEVETSIVRLAQLARAAGIHLILATQRPSVDVVTGLIKANFPCRISFQVTSKHDSRTILDTVGAEFLLGKGDMLFKPSGGKLQRLHGAFVSDDDVNGVVAFWKKQQPPSYKVDFAEWGNEGTLDGNGGSGGAGDLADDPVYAEAVEFVMGQGRASISLIQRRFRIGFNRAARYVEQMEQDGIIGPADGSKPRSVIRGKE | failed
MGLDDLVGQWLLPGMALAAVGVFFCIKGYLLRRQMARDALTDALTVGELRRRVHALVLGKRQRVYSGAMFLVEVVHHPELSAMLGLEDNKLLLAMIAQRLQMQSDYFQVARHSSDSFMVWAPDLDPRSARDVAPEVLDALSQPYELRGQPLIVGFRLSGALYAQHGACFDELERSLHIAMLHLDESAGAAWNMFEPSMLEHQRHYQGLEHDLRVALVSSSMDQFEVCYQPVCDSVTGTIYGCEALLRWHHPVHGDVSPALVIELAERTGLIVPLGAWVLETACSRAITWPAAWRLHVNVSVRQMYADELPAQVALALAASRLSAQRLVLEITESLFIQQYERHVATLNGMRAKGVRVALDDFGAGYSSLTHLRRLPIDWVKLDRGFVAEIEFDAVSREVVSALMGMCRALGLAVVAEGVETPAQREILKALGCREMQGFLLGRPVSAERIRELGAAVS | failed
MMKKHMYRLGLFKALTLALLVLLSAFVPSVLANQSRKPANLDGTTTLQSILSSSHRSEENRQRDKYRHPTQTLSFFGLRPDMTVVELWPGSGWYTEILAPYLAAKGQLIVTNFAPNDSKIPTVVFQQKLATAFQQKLEANKEVFGKIRVALINPPQELTLAPDNSVDMVVTFRNIHNWVNAGYAEQVYAAAYKALKPGGILGVEEHRAKPGISLQESIKTGYMSEDGVIAAVEKVGFKLVGKSEINANPQDTKDYPGGVWALPPTLRQGQKDRQRLVAIGESDRMTLKFIKPEANINSGSNAK | failed
MVVMSKVLLNIGCADVDKPGYINVDARKTKVTHLVSNAWDLDCFEENSVHEIYSRHMLEHLNPEYAKLALQKWFYILEPEGKLVVIVPDIEFHARQLLGVSRSSFGDQMEHAFAGFWGWREKERGGSDFDAHQWGYTVATLENEIGAVGFERIERVVEGVDSEPWHLQMTARKPMTSLCCPMDFRGPFPLEHHHHHH | not failed
EDPFQPEIKVRCVCGNSLETDSMIQVIWDELTAFIPCEDPRCHVWQHVGCVILPDKPMDGNPPLPESFYCEICRLT | not failed
LKKAGGALIAGVLKNGPADDAGIKPGDVLVAVNGKPIFNSSEMLNMVASLAPGKSATLTILRHGGQQDIQVRIGKRPS | failed
MKYYDEVPIIRSVAAMLVVAIHTVNSIALSRGTFTSDGLGYVNQIARLGTPIFAVISAFLLTISVVNKGFNLDYFVKSRFSKIFIPYIIWTVFYLLYRAFYLHNLEDDGKLLNYFVYGKANFHLYFILTVIQFYFLFPLLQKFKKGWPIIIVYILATIANIIWIRMGPVSLGGGGVERFVNDKLFIMNWISFFMLGIVYAKFYNEIRILIFKHKAILSTIIGILFIDFLLSIDLDHLQSSITVSNMIYIPFFIVFLNYLYEHVKKNHTILKTLTLIGNYSMGIYLVHYVAIQFVKRLPIIEDIVPQSKFMGVFILTVAVSVLIVYLIGKIPYGNYIVPIPKKKATQTTDVDKKKVTQSKHTPNYNS | failed
FRPVMPSRQIVERQPRMLDFRVEYRDRNVDVVLEDTCTVGEIKQILENELQIPVSKMLLKGWKTGDVEDSTVLKSLHLPKNNSLYVLTPDL | failed
MPCTAKVLELRPSVDALLRQHVRTLQGTGRGQCSKSFVPAIRQELVMIALFQGLGLLLQDNALHRLPFDEQVAHWRDKTDAQLDEELSLLKVAKKQWVIASIIGWQAISLILLGVITHQLWQNDYHLTFSRVVIIFTSWASILFVMWYIADLFDHSAGFERWLRAFNSRARVTPDADSVECVADALDMTRRYPEVLRYKQEVTSKRELRHEDIVNMREMGRLRRYTELLRDLDRFDGAPRLVANA | failed
RLNFLDTLGRAVTEATDPDQIMAITTRMLVEHLGLSSCAYAVMDPDEDGFTICGDAVTPGSPRLVGHYHLHDFGRLAVSRLRSGLALVINDNLRELAADEAATYQAIGITATICMPLIKGGRLTALMAIHDRVPRAWTDYEQTLISEVTERCWAHIQRAQAHAEVREAMAALEALNTTLE | failed
MKLELGNIFIKNVEFGEKTEVKDGVLYISSEEIEKIVLEDERIVSVNVELARPGESIRIAPVKDVIEPRVKIGDESKIFPGIINKVKTVGSGRTHVLLGACVVTCGNIVGFQEGVIDMSGPTAKYTPFSKTNNICIVIKAKDGIDTHDYEEAARIAGLKIGAYVGEAGREVEPDEVIVYETKPLLKQVKEYPDLPTVAYVHMLQSQGLLHDTYYYGVDAKQIVPTFMYPTEIMDGAIISGNCVAPCDKVTTFHHLNNPVIHDLYKRHGKDLNFIGVILTNENVFLVDKERSSDMVAKLIEFLGVDGVLVTEEGYGNPDTDLMMNCRKCSEVGANVVLITDEFPGKDGKSQSIADATKEADAVVSCGQGNLVVHFPAMEKIIGTLDYVEMMIGGYKGCLNEDGSMDAELQIIIASTIANGYNHLTARYY | failed
MSNEDNVRQETKNKKEKLRLSFPETRFMKFMGGKDLLFALIMLILIGIAIFIFDQVSYIFKPFIIVFNTIVAPIIVSIILYYLFNPLVNLMERYNISRLWGVIILFLVIIGVIALAINLLIPVIGTQFKSFGNNFPHYVDKVNQFIDNLTRNSLISNFYGQIQEQLDALANKLPSMVSDYFNGFGSKVKNFAEAIVNVGVVIATTPFVLFFMLKDSHHFKEYSTKLMPPKFRKDYHDLLDKMSVQVGSYIQGQIIVSFCIGILLFIGYSIIGLDYSLILASIAAVTSVVPYLGPTIAISPAIIIALITSPIMLLKLIIVWTAVQFIEGHFISPNIMGKTLKIHPLTIIFILLSAGNLLGVVGVILGIPAYAILKVLVSHLYSMYKRRYNKYYGDDAGEYEITNDEQIR | failed
TIDIDLQKEVEALLDKQIKKLRSQGAKDMDNAMMVVQNPKNGDILALAGKQINKSGKMTDYDIGTFTSQFAVGSSVKGGTLLAGYQNKAIKVGETMVDEPLHFQGGLTKRSYFNKNGHVSINDKQALMHSSNVYMFKTALKLAGDPYYSGMALPSDISSPAQKLRRGLNQVGLGVKTGIDLPNETRGQIEPLTNNPGNYLDLSIGQYDTYTPLQLSQYVSTIANDGYRIQPHIGLTIHESTNKDEVGPLKKKINGTVLNKVNNTEKEIKQIQEGFKMAFNDKDGTGYVSFKDTVVPTAGKTGTAEVFQNGEPRVNSTYIGYAPIDDPKLAFSIVYTNQPVPPPWLTGGDLGRDVINYYFKQLGKDDK | failed
SRLPKSPPYTAFLGNLPYDVTEESIKEFFRGLNISAVRLPREPSNPERLKGFGYAEFEDLDSLLSALSLNEESLGNKRIRVDVADQAQDKD | not failed
MDRRIAMSLQVLGAGLGRTGTLSLKFALEHLGFGPCYHATEVAANMRTALPLWNAAERGAADWSAIFAGYRSSTDHPGCYYWRQLIEVYPQAKVVLTVRDPDSWFESVTQTILMPGRKSTFVGPEGETFSTFLKQQMGGRSQDRAFMVDYFNRWNQAVIDAVPSDRLLVFSSRQGWAPLCGFLSVPVPHKPYPHLHARPRLRWFTRGLRLPDDVAARERHVREYLQYLREDLFGLEHHHHHH | not failed
MFRALKDKKRFIRNLILTFIIFLFIFLLYQFEAFRDIIFIVLVSGIFAYILKPLYRFLCERTKINKNFLAMAIVLSVIFLILFFLTVLIPSMFKEGESFDGLINGIEFFINDLIMKMKFMELGIFDVIEAQVTEKLNILLVSFATSIINNLISFSENILAFAVIPVLAYYFLAYGDLLSNKFLYCCPMEKRALLKNLGRDVDKVLGKYILGQLLLSLLVGVMTFIGMLILGIKFPLLLAFLNALLNIIPYFGAVLGAIPAIVVALVEGPNKILWVILTFLIIQQIEGNLIAPKITAESIDMHPILIIILLLIGEQIGGLLGMVFIVPIAVVIKVLFDDWDYYMFL | failed
MRCKRHTVDFSSSIGVCASCLRERLFTLAVSTAASENDDNDHRHSRISPPPLLFPRSVSPYVAPRKSDAGTGTGAGGRDSVASSNNRFFATPQVVVQSSSSEKVFESDRSFKKKKSGLSRFSSFFRTRSDDYDSRRDSCDASTVFSQPSSATTSRSWFSKVISVRSKKQSTTNTCYIEDLIASESDHHHHNQNRPRQRYCRGMSPAGDSTTNDESVEESPGRLRRTPVMGTPGRKKTATIGIGRSVSGMAFCLSPLVRAKPNCSSNWKAKFPPDFGYSGELKSPAKPHLSTAASFCGNRSKKLVDLGRVDHRR | failed
MLAEAGTGTGVAAAASHDAPPKAVPRQLPAPPRITAFLSAFATPPPHCLRLNKSLNGLHNPVTLHVVCQYMLLRSVHGGRERYLNAHVSQGSWPVLVLNADFRPLSYYPLSLWSWQDAIKAVFLDRVNIVAHYDQAVRSPTLEMQLPSVVSLKSFVKPTTHPAFTRFNVFLRDRFACQYCGSPEDLTFDHIIPRSKGGQTTWENVVAACSPCNLRKGNLTPAQAKMFPRQSAFAPTVHQLHRNGRMFPPNYLHDSWLDYLYWDTELDP | failed
